The source of these data is article PMC5412023.

For orientation: Kd means the free concentration of one partner at which half of the binding sites on the other are occupied at equilibrium, for simple one-to-one binding.

The target of test [1] is GST-TET2 CR W1291R (UniProt Q6N021). Nature of the test: MST; microscale thermophoresis, Monolith NT.115, analysed by PRISM; biotinylated histone H3 peptides with GST-TET2 CR wild type or W1291R.
The target of test [2] is GST-TET2 CR (cysteine-rich domain of TET2, residues 1129-1322, fused to glutathione S-transferase), wild type (UniProt Q6N021). The description is as above.
The target is the same in test [3]. Nature of the test: MST; microscale thermophoresis, Monolith NT.115, analysed by PRISM; mononucleosome binding to the wild-type CR domain.

As for “histone H3_(21-44) unmodified peptide (from UniProt P68431 22-45)”, the values for the Kd in test [1] and in test [2] were 0.946 µM and 21000 nM, respectively.

Take “histone H3_(21-44) K36me2 peptide (from UniProt P68431 22-45)”: the Kd in test [1] turned out to be 27.5 µM; in test [2] it was 734 nM.

Take “histone H3_(21-44) K36me1 peptide (from UniProt P68431 22-45)”: the Kd worked out at 11.1 µM in test [1] and 688 nM in test [2].

mononucleosome (complex) displayed a Kd in test [3] of 387 nM.
